Measured values as given in patent US20030198598A1, “Polypeptide derivatives” (priority 1989, published 2003).
One block for each compound: values may come before it. Where a SMILES comes first, the peptide text is derived from it. [ ]: non-standard residue; d: D form. The star is where a group is joined. DTPA = O=C(O)CN(CCN(CC(=O)O)CC(=O)O)CCN(CC(=O)O)CC(=O)*; dPhe(4-Cl) = N[C@H](Cc1ccc(Cl)cc1)C(=O)O

Experiments:
LHRH-receptors = molecular target: T1, LHRH-receptors (Rattus norvegicus, UniProt P30969); assay: Binding assay on LHRH receptor positive anterior pituitary membranes; design: species or system male Sprague-Dawley rats; conditions: labelled with 0.4 mCi 111InCl3, 10^-6 M (DAla6)LHRH for non-specific binding
T1 construct: LHRH receptor positive anterior pituitary membranes from male Sprague-Dawley rats; from tissue; host or cells: anterior pituitary membranes of male Sprague-Dawley rats
T1 sequence (P30969 1-327): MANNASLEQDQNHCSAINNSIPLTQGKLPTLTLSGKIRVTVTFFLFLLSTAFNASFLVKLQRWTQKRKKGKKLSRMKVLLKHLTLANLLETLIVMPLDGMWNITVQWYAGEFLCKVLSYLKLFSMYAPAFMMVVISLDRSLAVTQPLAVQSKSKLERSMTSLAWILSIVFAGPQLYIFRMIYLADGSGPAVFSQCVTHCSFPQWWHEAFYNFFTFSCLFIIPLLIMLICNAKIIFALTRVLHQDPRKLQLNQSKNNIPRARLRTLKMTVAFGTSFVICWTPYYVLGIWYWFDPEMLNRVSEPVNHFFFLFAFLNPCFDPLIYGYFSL

EGF receptor [1] = molecular target: T2, EGF receptor (Homo sapiens, UniProt P00533); assay: Inhibition of specifically bound [125I]-EGF on membranes of an EGF receptor positive human tumor; format: binding; conditions: 30 min at 37° C
T2 construct: Membranes are isolated by differential centrifugation; from tissue; host or cells: EGF receptor positive human tumor (membranes)
Protocol: (§1) An EGF receptor positive human tumor is removed and immediately stored at −70° C. During the subsequent isolation procedure this material is kept at 0 to 4° C. The tumor tissue is dissected into small cubes prior to homogenisation in 5 parts of Buffer A (20 mM HEPES, 0.1 mM EDTA and 250 mM sucrose, pH 7.4). Membranes are isolated by differential centrifugation. The material is then diluted in the incubation buffer containing 30 mM HEPES, pH 7.4, 1 mg/ml BSA and 1 mM benzamidine. The test mixture (200 μl final volume) contains 100 000 cpm [^125I]-EGF, the tissue (5 to 25 μg protein/assay) and compound of Example 3 at a concentration of 10^−9 M. After mixing the icecold test solution on a vortex the tubes (polypropylene) are transfered to a waterbath and incubated for 30 min at 37° C. The reaction is stopped by addition of icecold Hank's or Tris buffer (4 ml). The Tris buffer contains 10 mM Tris in 0.9% sodium chloride solution and is adjusted to pH 7.4. Routinely, filtration buffers contain 1% BSA (Fraction V) to suppress non-specific binding to the glass fiber filters (type A/E) that have been soaked in the filtration buffer a few minutes prior to use. The tubes are rinsed with 4 ml of the filtration buffer and the rinsing fluid is put over the respective filters. A third wash of the filters is followed by drying and the measurement of the filter-bound radioactivity in a γ-counter. […]

EGF receptor [2] = molecular target: T2, EGF receptor; assay: Similar binding assay with the 111In labelled compound as test substance, non-specific binding with 10^-7 M EGF; conditions: compound of Example 3 labelled with 0.2 mCi 111InCl3; controls with 10^-7 M EGF
Protocol: as §1, with “The test mixture (200 μl final volume) contains 100 000 cpm [^125I]-EGF, the tissue (5 to 25 μg protein/assay) and compound of Example 3 at a concentration of 10^−9 M.” left out, “γ-counter. The washing of the filters takes approximately 10 sec.” for “γ-counter.”

[3] = system: EGF receptor positive tumour (MDA 231, MDA 468 or A 431 tumors); design: species or system nude mice; conditions: mouse, in vivo, iv
Protocol: Biodistribution of radioactivity may be determined either with standard imaging techniques in nude mice weighing 20+5 g and bearing an EGF receptor positive tumour (MDA 231, MDA 468 or A 431 tumors) or through serial sacrifice of a number of such animals and determination of the organ radioactivity. Compound of Example 4 is administered i.v. to the animals at a dosage corresponding to 90-10 μCi and the radioactivity is assessed 5 min, 10 min, 15 min, 30 min, 60 min, 20 hrs and 48 hrs.

- IC50 (LHRH-receptors): 1.1 nM
Compound: CC(=O)N[C@H](Cc1ccc(Cl)cc1)C(=O)N[C@H](Cc1ccc(Cl)cc1)C(=O)N[C@H](Cc1c[nH]c2ccccc12)C(=O)N[C@@H](CO)C(=O)N[C@@H](Cc1ccc(O)cc1)C(=O)N[C@H](CCCCNC(=O)CN(CCN(CCN(CC(=O)O)CC(=O)O)CC(=O)O)CC(=O)O)C(=O)N[C@@H](CC(C)C)C(=O)N[C@@H](CCCNC(=N)N)C(=O)N1CCC[C@H]1C(=O)N[C@H](C)C(N)=O [^111In labelled compound of Example 8, metal not drawn] (Ac-[dPhe(4-Cl)][dPhe(4-Cl)][dW]SY[dK](DTPA)LRP[dA]-NH2)

- IC50 (EGF receptor [1]): 1.3 nM
Compound: DTPA-β-Ala-mEGF [Example 3]

- IC50 (EGF receptor [2]): 3 nM
Compound: ^111In Labeled DTPA-β-Ala-mEGF [Example 4]
- Localisation of radioactivity 5 minutes after injection [3]: radioactivity is detected in the liver, kidneys, urinary bladder and in the tumor site
- Localisation of radioactivity 60 min after injection [3]: Radioactivity is increasing and is localized on the tumor site
